Assay results taken from the Human Domainome abundance scans (Beltran et al. 2025).

B1: Tripartite motif-containing protein 44, residues 174 to 218; numbered along this chain, Q96DX7 (parent)
chain: VAKRKCPDHGLDLSTYCQEDRQLICVLCPVIGAHQGHQLSTLDEA
B2: Far upstream element-binding protein 2, residues 142 to 214; numbered along this chain, Q92945 (parent)
chain: RTSMTEEYRVPDGMVGLIIGRGGEQINKIQQDSGCKVQISPDSGGLPERSVSLTGAPESVQKAKMMLDDIVSR

Variants of: B1
Test: abundance fitness (aPCA) (normalised: wild type 0, dead -1); higher = more abundant; growth selection in yeast, the domain comes from the species named
Conditions: Homo sapiens

Abundance fitness of substitutions, site by site:
A45: V -0.022, T 0.021, S -0.243, W -0.036

Variants of: B2
Test: as above
Conditions: Homo sapiens

Abundance fitness: each site, then its substitutions
L17: I -0.045, P -0.199, C -0.118, D 0.061, S -0.021, H -0.087, W -0.111, F -0.072, V -0.113, Q -0.028, T 0.045, Y -0.147, N -0.119, K -0.059, G -0.023, E 0.074, A 0.016
V15: C -0.22, W -0.081, Q -0.272, S -0.219, Y -0.197, M 0.035, I -0.06, H -0.214, P -0.462, N -0.376, G -0.282, A -0.053, L 0.068, E -0.03, K -0.251, R -0.335, T -0.227, D -0.217, F -0.076
S3: E 0.151, C 0.152, W 0.05, N 0.224, V 0.144, T 0.213, G 0.003, F 0.251, Y 0.125, K 0.219, Q 0.124, L 0.074, A 0.028, D 0.17, P 0.043, I 0.137, H 0.009
Y8: C -0.609, R -0.455, T -0.214, K -0.417, V -0.057, I -0.061, E -0.496, H -0.12, G -0.576, P -0.342, Q -0.51, N -0.536, F -0.116, D -0.477, W -0.007, S -0.472, L -0.089
M4: S -0.072, I -0.096, Q 0.057, C 0.045, K 0.029, F 0.02, G -0.431, A -0.716, L -0.002, H -0.107, D -0.106, P -0.365, E -0.085, N -0.178, W -0.15, V -0.069, T -0.063, R -0.079
V10: A -0.289, M 0.041, I -0.02, E -0.456, L 0.068, R -0.741, T -0.464, N -0.567, F -0.132, W -0.726, S -0.628, C -0.137, P -0.456, Q -0.709, Y -0.224, K -0.603, D -0.467
E7: L 0.021, Q 0.017, C -0.178, H 0.043, F 0.074, D -0.036, P -0.137, S -0.088, N -0.109, I -0.028, W -0.1, T 0.046, A -0.136, V -0.194, M -0.02, K -0.115, Y 0.028
T5: A -0.248, C -0.125, D -0.319, Q -0.117, S -0.11, G -0.485, R -0.168, H -0.235, W -0.456, L -0.384, Y -0.248, V -0.154, E -0.304, F -0.331, N -0.16, P -0.62
E6: K -0.027, C 0.051, G -0.189, Q 0.045, R -0.068, W -0.086, T 0.125, N -0.255, V 0.097, S -0.017, H -0.062, F -0.1, Y -0.147, D -0.171, A -0.021, I -0.086, L 0.07, M 0.187
I18: A -0.276, D -0.312, T -0.282, Q -0.346, K -0.333, W -0.562, Y -0.494, M -0.17, C -0.595, F -0.122, L 0.035, V -0.158, N -0.345, H -0.51, S -0.398, P -0.324, G -0.363, E -0.287
M14: N -0.148, F -0.349, G -0.361, T -0.21, D -0.209, A -0.111, W -0.319, Y -0.19, R -0.314, P -0.898, L -0.048, I -0.003, S -0.219, K -0.017, Q -0.243, V -0.094, E -0.208, H -0.235
D12: R 0.088, T 0.105, Y -0.204, I 0.041, V -0.097, N -0.14, C -0.175, K -0.032, G -0.04, E -0.003, H 0.013, W -0.524, S 0.054, P 0.051, Q -0.039, F -0.153
G13: N 0.18, L -0.174, R 0.07, M -0.052, F -0.184, W -0.097, V -0.389, S 0.122, Y -0.005, D 0.134, K 0.066, I -0.039, T 0.035, C -0.127, P -0.124, E 0.12, A -0.072, Q 0.09
I19: F -0.098, G -0.146, A -0.096, H -0.17, N -0.029, Q -0.105, Y 0.005, D -0.179, C -0.114, E -0.103, V -0.016, M 0.096, W -0.144, R -0.091, L 0.008, P -0.35, K -0.01
G16: C -0.334, D 0.136, W -0.229, R -0.078, L -0.495, F -0.499, P -0.015, Q -0.034, K -0.068, S -0.076, T -0.101, E 0.049, I -0.994, V -0.619, N -0.093, H -0.019, A -0.037
P11: A -0.131, Y -0.712, V -0.425, K -0.178, H -0.536, F -1.07, I -0.277, Q -0.221, R -0.299, N -0.371, W -0.765, D -0.122, M -0.375, T -0.158, G -0.472, E -0.193, L -0.362
T2: D 0.003, A -0.13, N 0.109, E -0.025, Y -0.016, Q -0.421, C -0.198, G -0.04, W -0.567, H -0.138, P -0.227, K -0.007, V 0.004, I -0.04, S 0.071, M 0.104, L -0.079, R -0.169
R9: H 0.135, P 0.041, W -0.033, I 0.055, L 0.076, Y 0.025, G -0.235, E -0.094, M 0.064, D -0.155, N 0.078, S -0.024, A -0.145, T 0.053, F 0.068, V -0.046, Q 0.137, C -0.132, K 0.119
R1: E 0.075, L -0.071, S -0.072, A -0.205, M 0.19, H -0.256, P -0.27, K 0.166, D 0.017, W -0.143, I 0.195, N 0.101, G -0.071, Q 0.036, Y -0.195, F -0.297
